Results: FireProtDB (doi:10.1021/bi00052a024)

Details: Katsuwonus pelamis, pH 7.5, 25 °C, GdnHCl, CD, Tris 20 mM, NaCl 40 mM, reversible: yes

Sequence of Cytochrome c K74M, P00025 (P00025 whole entry K74M): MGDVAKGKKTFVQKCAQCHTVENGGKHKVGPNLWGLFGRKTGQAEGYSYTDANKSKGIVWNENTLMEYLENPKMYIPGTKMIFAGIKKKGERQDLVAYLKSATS
Sequence of Cytochrome c K74F, P00025 (P00025 whole entry K74F): as the sequence (P00025 whole entry K74M) above, with M74F counted along it
Sequence of Cytochrome c K74W, P00025 (P00025 whole entry K74W): as the sequence (P00025 whole entry K74M) above, with M74W counted along it
Sequence of Cytochrome c wild type, P00025 (P00025 whole entry): as the sequence (P00025 whole entry K74M) above, with M74K counted along it
Sequence of Cytochrome c K74Y, P00025 (P00025 whole entry K74Y): as the sequence (P00025 whole entry K74M) above, with M74Y counted along it

Substance: Cytochrome c K74F, P00025
- ddG of mutation (higher = less stable) (structure 1CYC): 1.15 kcal/mol
- denaturant m value (structure 1CYC): 4.44 kcal/mol/M
- denaturant midpoint (higher = more stable) (structure 1CYC): 1 M
- unfolding free energy (structure 1CYC): 4.51 kcal/mol

Substance: Cytochrome c K74M, P00025
- ddG of mutation (higher = less stable) (structure 1CYC): 1 kcal/mol
- denaturant m value (structure 1CYC): 4.43 kcal/mol/M
- denaturant midpoint (higher = more stable) (structure 1CYC): 1 M
- unfolding free energy (structure 1CYC): 4.66 kcal/mol

Substance: Cytochrome c K74W, P00025
- ddG of mutation (higher = less stable) (structure 1CYC): 1.43 kcal/mol
- denaturant m value (structure 1CYC): 4.16 kcal/mol/M
- denaturant midpoint (higher = more stable) (structure 1CYC): 1 M
- unfolding free energy (structure 1CYC): 4.23 kcal/mol

Substance: Cytochrome c K74Y, P00025
- ddG of mutation (higher = less stable) (structure 1CYC): 1.05 kcal/mol
- denaturant m value (structure 1CYC): 4.62 kcal/mol/M
- denaturant midpoint (higher = more stable) (structure 1CYC): 1 M
- unfolding free energy (structure 1CYC): 4.61 kcal/mol

Substance: Cytochrome c wild type, P00025
- denaturant m value: 4.87 kcal/mol/M
- denaturant midpoint (higher = more stable): 1.16 M
- unfolding free energy: 5.66 kcal/mol
